Data taken from US20250339531A1, “DUX4 POLYPEPTIDES AND NUCLEIC ACIDS FOR TREATING INFLAMMATORY AND AUTOIMMUNE CONDITIONS” (Fred Hutchinson Cancer Center, priority 2021, published 2025).

B1: AP2B1 (protein)
chain: TDSKYFTTNKKGEIFELKAELNNEKKEKRKEAVKKVIAAMTVGKDVSSLFPDVVNCMQTDNLELKKLVYLYLMNYAKSQPDMAIMAVNSFVKDCEDPNPLIRALAVRTMGCIRVDKITEYLCEPLRKCLKDEDPYVRKTAAVCVAKLHDINAQMVEDQGFLDSLRDLIADSNPMVVANAVAALSEISESHPNSNLLDLNPQNINKLLTALNECTEWGQIFILDCLSNYNPKDDREAQSICERVTPRLSHANSAVVLSAVKVLMKFLELLPKDSDYYNMLLKKLAPPLVTLLSGEPEVQYVALRNINLIVQKRPEILKQEIKVFFVKYNDPIYVKLEKLDIMIRLASQANIAQVLAELKEYATEVDVDFVRKAVRAIGRCAIKVEQSAERCVSTLLDLIQTKVNYVVQEAIVVIRDIFRKYPNKYESIIATLCENLDSLDEPDARAAMIWIVGEYAERIDNADELLESFLEGFHDESTQVQLTLLTAIVKLFLKKPSETQELVQQVLSLATQDSDNPDLRDRGYIYWRLLSTDPVTAKEVVLSEKPLISEETDLIEPTLLDELICHIGSLASVYHKPPNAFVEGSHGIHRKHLPIHHGSTDAGDSPVGTTTATNLEQPQVIPSQGDLLGDLLNLDLGPPVNVPQVSSMQMGAVDLLGGGLDSLVGQSFIPSSVPATFAPSPTPAVVSSGLNDLFELSTGIGMAPGGYVAPKAVWLPAVKAKGLEISGTFTHRQGHIYMEMNFTNKALQHMTDFAIQFNKNSFGVIPSTPLAIHTPLMPNQSIDVSLPLNTLGPVMKMEPLNNLQVAVKNNIDVFYFSCLIPLNVLFVEDGKMERQVFLATWKDIPNENELQFQIKECHLNADTVSSKLQNNNVYTIAKRNVEGQDMLYQSLKLTNGIWILAELRIQPGNPNYTLSLKCRAPEVSQYIYQVYDSILKN
B2: P04844 (protein, UniProt P04844 1-631, looked up)
chain: MAPPGSSTVFLLALTIIASTWALTPTHYLTKHDVERLKASLDRPFTNLESAFYSIVGLSSLGAQVPDAKKACTYIRSNLDPSNVDSLFYAAQASQALSGCEISISNETKDLLLAAVSEDSSVTQIYHAVAALSGFGLPLASQEALSALTARLSKEETVLATVQALQTASHLSQQADLRSIVEEIEDLVARLDELGGVYLQFEEGLETTALFVAATYKLMDHVGTEPSIKEDQVIQLMNAIFSKKNFESLSEAFSVASAAAVLSHNRYHVPVVVVPEGSASDTHEQAILRLQVTNVLSQPLTQATVKLEHAKSVASRATVLQKTSFTPVGDVFELNFMNVKFSSGYYDFLVEVEGDNRYIANTVELRVKISTEVGITNVDLSTVDKDQSIAPKTTRVTYPAKAKGTFIADSHQNFALFFQLVDVNTGAELTPHQTFVRLHNQKTGQEVVFVAEPDNKNVYKFELDTSERKIEFDSASGTYTLYLIIGDATLKNPILWNVADVVIKFPEEEAPSTVLSQNLFTPKQEIQHLFREPEKRPPTVVSNTFTALILSPLLLLFALWIRIGANVSNFTFAPSTIIFHLGHAAMLGLMYVYWTQLNMFQTLKYLAILGSVTFLAGNRMLAQQAVKRTAH
modifications: full-length
B3: P10809 (protein, UniProt P10809 1-573, looked up)
chain: MLRLPTVFRQMRPVSRVLAPHLTRAYAKDVKFGADARALMLQGVDLLADAVAVTMGPKGRTVIIEQSWGSPKVTKDGVTVAKSIDLKDKYKNIGAKLVQDVANNTNEEAGDGTTTATVLARSIAKEGFEKISKGANPVEIRRGVMLAVDAVIAELKKQSKPVTTPEEIAQVATISANGDKEIGNIISDAMKKVGRKGVITVKDGKTLNDELEIIEGMKFDRGYISPYFINTSKGQKCEFQDAYVLLSEKKISSIQSIVPALEIANAHRKPLVIIAEDVDGEALSTLVLNRLKVGLQVVAVKAPGFGDNRKNQLKDMAIATGGAVFGEEGLTLNLEDVQPHDLGKVGEVIVTKDDAMLLKGKGDKAQIEKRIQEIIEQLDVTTSEYEKEKLNERLAKLSDGVAVLKVGGTSDVEVNEKKDRVTDALNATRAAVEEGIVLGGGCALLRCIPALDSLTPANEDQKIGIEIIKRTLKIPAMTIAKNAGVEGSLIVEKIMQSSSEVGYDAMAGDFVNMVEKGIIDPTKVVRTALLDAAGVASLLTTAEVVVTEIPKEEKDPGMGAMGGMGGGMGGGMF
modifications: full-length
B4: PDIA3 (protein)
chain: SDVLELTDDNFESRISDTGSAGLMLVEFFAPWCGHCKRLAPEYEAAATRLKGIVPLAKVDCTANTNTCNKYGVSGYPTLKIFRDGEEAGAYDGPRTADGIVSHLKKQAGPASVPLRTEEEFKKFISDKDASIVGFFDDSFSEAHSEFLKAASNLRDNYRFAHTNVESLVNEYDDNGEGIILFRPSHLTNKFEDKTVAYTEQKMTSGKIKKFIQENIFGICPHMTEDNKDLIQGKDLLIAYYDVDYEKNAKGSNYWRNRVMMVAKKFLDAGHKLNFAVASRKTFSHELSDFGLESTAGEIPVVAIRTAKGEKFVMQEEFSRDGKALERFLQDYFDGNLKRYLKSEPIPESNDGPVKVVVAENFDEIVNNENKDVLIEFYAPWCGHCKNLEPKYKELGEKLSKDPNIVIAKMDATANDVPSPYEVRGFPTIYFSPANKKLNPKKYEGGRELSDFISYLQREATNPPVIQEEKPKKKKKAQEDL
B5: SERPINH1 (protein)
chain: AEVKKPAAAAAPGTAEKLSPKAATLAERSAGLAFSLYQAMAKDQAVENILVSPVVVASSLGLVSLGGKATTASQAKAVLSAEQLRDEEVHAGLGELLRSLSNSTARNVTWKLGSRLYGPSSVSFADDFVRSSKQHYNCEHSKINFRDKRSALQSINEWAAQTTDGKLPEVTKDVERTDGALLVNAMFFKPHWDEKFHHKMVDNRGFMVTRSYTVGVMMMHRTGLYNYYDDEKEKLQIVEMPLAHKLSSLIILMPHHVEPLERLEKLLTKEQLKIWMGKMQKKAVAISLPKGVVEVTHDLQKHLAGLGLTEAIDKNKADLSRMSGKKDLYLASVFHATAFELDTDGNPFDQDIYGREELRSPKLFYADHPFIFLVRDTQSGSLLFIGRLVRPKGDKMRDEL
B6: RPN1 (protein)
chain: ASSEAPPLINEDVKRTVDLSSHLAKVTAEVVLAHLGGGSTSRATSFLLALEPELEARLAHLGVQVKGEDEEENNLEVRETKIKGKSGRFFTVKLPVALDPGAKISVIVETVYTHVLHPYPTQITQSEKQFVVFEGNHYFYSPYPTKTQTMRVKLASRNVESYTKLGNPTRSEDLLDYGPFRDVPAYSQDTFKVHYENNSPFLTITSMTRVIEVSHWGNIAVEENVDLKHTGAVLKGPFSRYDYQRQPDSGISSIRSFKTILPAAAQDVYYRDEIGNVSTSHLLILDDSVEMEIRPRFPLFGGWKTHYIVGYNLPSYEYLYNLGDQYALKMRFVDHVFDEQVIDSLTVKIILPEGAKNIEIDSPYEISRAPDELHYTYLDTFGRPVIVAYKKNLVEQHIQDIVVHYTFNKVLMLQEPLLVVAAFYILFFTVIIYVRLDFSITKDPAAEARMKVACITEQVLTLVNKRIGLYRHFDETVNRYKQSRDISTLNSGKKSLETEHKALTSEIALLQSRLKTEGSDLCDRVSEMQKLDAQVKELVLKSAVEAERLVAGKLKKDTYIENEKLISGKRQELVTKIDHILDAL
B7: ASPH (protein)
chain: MAQRKNAKSSGNSSSSGSGSGSTSAGSSSPGARRETKHGGHKNGRKGGLSGTSFFTWFMVIALLGVWTSVAVVWFDLVDYEEVLGKLGIYDADGDGDFDVDDAKVLLGLKERSTSEPAVPPEEAEPHTEPEEQVPVEAEPQNIEDEAKEQIQSLLHEMVHAEHVEGEDLQQEDGPTGEPQQEDDEFLMATDVDDRFETLEPEVSHEETEHSYHVEETVSQDCNQDMEEMMSEQENPDSSEPVVEDERLHHDTDDVTYQVYEEQAVYEPLENEGIEITEVTAPPEDNPVEDSQVIVEEVSIFPVEEQQEVPPETNRKTDDPEQKAKVKKKKPKLLNKFDKTIKAELDAAEKLRKRGKIEEAVNAFKELVRKYPQSPRARYGKAQCEDDLAEKRRSNEVLRGAIETYQEVASLPDVPADLLKLSLKRRSDRQQFLGHMRGSLLTLQRLVQLFPNDTSLKNDLGVGYLLIGDNDNAKKVYEEVLSVTPNDGFAKVHYGFILKAQNKIAESIPYLKEGIESGDPGTDDGRFYFHLGDAMQRVGNKEAYKWYELGHKRGHFASVWQRSLYNVNGLKAQPWWTPKETGYTELVKSLERNWKLIRDEGLAVMDKAKGLFLPEDENLREKGDWSQFTLWQQGRRNENACKGAPKTCTLLEKFPETTGCRRGQIKYSIMHPGTHVWPHTGPTNCRLRMHLGLVIPKEGCKIRCANETKTWEEGKVLIFDDSFEHEVWQDASSFRLIFIVDVWHPELTPQQRRSLPAI
B8: P4HA1 (protein)
chain: HPGFFTSIGQMTDLIHTEKDLVTSLKDYIKAEEDKLEQIKKWAEKLDRLTSTATKDPEGFVGHPVNAFKLMKRLNTEWSELENLVLKDMSDGFISNLTIQRQYFPNDEDQVGAAKALLRLQDTYNLDTDTISKGNLPGVKHKSFLTAEDCFELGKVAYTEADYYHTELWMEQALRQLDEGEISTIDKVSVLDYLSYAVYQQGDLDKALLLTKKLLELDPEHQRANGNLKYFEYIMAKEKDVNKSASDDQSDQKTTPKKKGVAVDYLPERQKYEMLCRGEGIKMTPRRQKKLFCRYHDGNRNPKFILAPAKQEDEWDKPRIIRFHDIISDAEIEIVKDLAKPRLRRATISNPITGDLETVHYRISKSAWLSGYENPVVSRINMRIQDLTGLDVSTAEELQVANYGVGGQYEPHFDFARKDEPDAFKELGTGNRIATWLFYMSDVSAGGATVFPEVGASVWPKKGTAVFWYNLFASGEGDYSTRHAACPVLVGNKWVSNKWLHERGQEFRRPCTLSELE

Tested on: proteins that co-immunoprecipitated with DUX4-CTD constructs expressed in MB135 myoblasts
Assay: LC-MS of proteins co-immunoprecipitated with DUX4-CTD (Table 1) and western validation
Assay type: binding, human
Parameters: key to 4. mL1dL2 + Dox + IFNG / 4. + IFNG mix / 4. longCTD + Dox + IFNG / 3. + IFNg + Dox longCTD / 3. + Dox longCTD / 3. + IFNG longCTD: peptide-spectrum matches (PSMs) per protein
Settings: for 3. + IFNg + Dox longCTD: experiment 3, IFNg + Dox; for SUM of PSMS: sum over all samples
Summary of the method: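 FLAG-tagged DUX4-CTD expressed in doxycycline-induced MB135 myoblasts, some also IFNG-treated; nuclear lysates in pH 7.4 NP-40 IP buffer were pre-cleared, then anti-FLAG immunoprecipitated 3 h at 4 °C. For LC-MS, FLAG-peptide elution, in-gel trypsin digest, Orbitrap analysis; proteins with ≥2 PSMs in both experiments categorised and ranked by total PSMs.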

[1] = LC-MS value per protein co-immunoprecipitated with DUX4-CTD construct mL1dL2 in MB135 myoblasts, + Dox + IFNG, kind of count not given
[2] = LC-MS counts of the listed protein co-immunoprecipitated with DUX4-CTD bait mL1dL2, experiment 4, Dox + IFNG
[3] = LC-MS value per protein co-immunoprecipitated from MB135 myoblasts, + IFNG mix sample (no Dox), kind of count not given

Molecule | 4. mL1dL2 + Dox + IFNG [1] | 4. + IFNG mix [3] | also measured
B1 | 1 |  | 
B2 |  |  | 4. mL1dL2 + Dox + IFNG [2]: 3; 3. + IFNg + Dox longCTD (bait longCTD): 4; SUM of PSMS: 7
B3 |  |  | 4. longCTD + Dox + IFNG (LC-MS counts of the listed protein co-immunoprecipitated with DUX4-CTD bait longCTD, experiment 4, Dox + IFNG): 5; 4. mL1dL2 + Dox + IFNG [2]: 4; 4. + IFNG mix (LC-MS counts of the listed protein in anti-FLAG co-IP, experiment 4, IFNG, no doxycycline, mix, MB135 myoblasts): 5; 3. + Dox longCTD (bait longCTD, experiment 3, Dox only): 1; 3. + IFNg + Dox longCTD (bait longCTD): 2; SUM of PSMS: 17
B4 | 3 | 9 | 
B5 | 5 | 5 | 
B6 | 7 | 2 | 
B7 | 1 |  | 
B8 | 27 | 1 | 
